Source: publication PMC4186791

Legend:
Experiment in all cases: two-hybrid; LexA-Ubx variant (pLexA) and B42-partner (pB42) co-transformed into S. cerevisiae EGY48 carrying p8op-LacZ; blue/white colonies on X-gal and liquid β-galactosidase (ONPG) assay after galactose induction at 30°C, reported in Miller units
[1] = biological target: UbxIVa Pro4 (Drosophila melanogaster)
[2] = biological target: UbxIb N103 Pro4 (Drosophila melanogaster) (UniProt P83949)
[3] = biological target: UbxIb Δ103–216 (Drosophila melanogaster) (UniProt P83949)
UbxIb Δ103–216 (Drosophila melanogaster), sequence (P83949 other isoform, or with tags, fused parts or gaps mutant): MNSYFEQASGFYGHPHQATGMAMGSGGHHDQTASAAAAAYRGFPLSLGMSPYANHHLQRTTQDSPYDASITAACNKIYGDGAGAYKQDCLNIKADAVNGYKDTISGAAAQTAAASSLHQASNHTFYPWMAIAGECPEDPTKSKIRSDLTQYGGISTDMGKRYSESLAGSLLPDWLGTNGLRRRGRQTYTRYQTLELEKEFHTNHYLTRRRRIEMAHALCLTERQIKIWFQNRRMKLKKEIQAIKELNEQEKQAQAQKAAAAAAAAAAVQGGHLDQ

Ribosomal protein L22, sequence (P50887 whole entry): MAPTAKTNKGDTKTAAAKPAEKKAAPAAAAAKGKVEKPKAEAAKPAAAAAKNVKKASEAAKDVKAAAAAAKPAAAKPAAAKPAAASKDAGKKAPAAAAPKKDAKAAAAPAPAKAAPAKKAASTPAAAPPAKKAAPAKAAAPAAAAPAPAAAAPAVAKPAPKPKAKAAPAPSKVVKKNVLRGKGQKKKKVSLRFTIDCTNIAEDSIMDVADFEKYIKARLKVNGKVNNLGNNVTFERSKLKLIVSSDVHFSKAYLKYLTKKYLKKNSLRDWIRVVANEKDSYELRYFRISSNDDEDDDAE
Dishevelled, sequence (P51140 whole entry): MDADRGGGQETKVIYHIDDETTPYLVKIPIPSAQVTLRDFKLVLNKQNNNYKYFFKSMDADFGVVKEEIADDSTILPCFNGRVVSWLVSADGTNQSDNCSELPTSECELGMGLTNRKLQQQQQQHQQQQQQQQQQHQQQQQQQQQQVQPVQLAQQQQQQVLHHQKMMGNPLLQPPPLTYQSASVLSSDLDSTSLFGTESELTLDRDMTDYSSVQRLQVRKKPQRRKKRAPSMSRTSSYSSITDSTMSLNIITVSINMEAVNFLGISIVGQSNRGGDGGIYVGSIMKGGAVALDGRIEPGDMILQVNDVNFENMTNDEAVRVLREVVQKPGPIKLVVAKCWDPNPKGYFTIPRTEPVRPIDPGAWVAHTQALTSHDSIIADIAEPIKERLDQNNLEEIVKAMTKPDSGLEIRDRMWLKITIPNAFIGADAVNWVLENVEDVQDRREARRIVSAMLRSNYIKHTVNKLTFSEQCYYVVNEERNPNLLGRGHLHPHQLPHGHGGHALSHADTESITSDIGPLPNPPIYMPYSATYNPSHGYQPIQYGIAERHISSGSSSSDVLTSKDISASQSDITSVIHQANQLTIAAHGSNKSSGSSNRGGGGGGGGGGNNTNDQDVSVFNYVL
14-3-3ε, sequence (P92177 whole entry): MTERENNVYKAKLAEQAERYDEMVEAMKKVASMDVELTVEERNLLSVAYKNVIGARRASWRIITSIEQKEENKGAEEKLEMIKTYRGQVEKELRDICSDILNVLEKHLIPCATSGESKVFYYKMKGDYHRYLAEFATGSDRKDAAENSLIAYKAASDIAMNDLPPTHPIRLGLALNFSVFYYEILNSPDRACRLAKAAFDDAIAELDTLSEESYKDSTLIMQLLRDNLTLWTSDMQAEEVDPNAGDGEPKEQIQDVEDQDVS
UbxIb N103 Pro4 (Drosophila melanogaster), sequence (P83949 other isoform, or with tags, fused parts or gaps amino acids 2–102 removed (N103) | A226P | Q233P): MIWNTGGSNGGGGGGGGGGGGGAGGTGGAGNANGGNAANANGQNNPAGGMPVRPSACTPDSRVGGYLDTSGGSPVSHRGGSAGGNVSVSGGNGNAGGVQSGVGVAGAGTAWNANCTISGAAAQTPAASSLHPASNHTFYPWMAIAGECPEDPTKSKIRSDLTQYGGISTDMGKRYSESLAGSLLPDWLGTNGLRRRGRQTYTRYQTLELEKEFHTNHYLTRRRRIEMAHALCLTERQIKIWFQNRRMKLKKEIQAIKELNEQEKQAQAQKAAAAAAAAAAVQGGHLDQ

Row | Substance | percent of reporter signal lost relative to UbxIb Pro4 [1] [%] | percent of reporter signal lost relative to UbxIb Pro4 [2] [%] | percent of reporter signal lost relative to UbxIb Pro4 [3] [%]
1 | Ribosomal protein L22 (from UniProt P50887 1-299) (natural protein) | > 59 |  | 
2 | Apontic (natural protein) | > 59 | > 59 | > 59
3 | 14-3-3ε (from UniProt P92177 1-262) (natural protein) | > 59 |  | 
4 | Dishevelled (from UniProt P51140 1-623) (natural protein) | > 59 |  | 
